Data: patent US20240309055A1
Substitutions are numbered along the chain they refer to.

Key:
[1] = target: IgG affixed to the BLI probe; test: BLI kinetic analysis, 1:1 fit, protein M 15.6-250 nM, IgG on Anti-Mouse IgG Fc Capture biosensor (mouse IgG per paragraph 316), 37 C; same row: KD error 0.2 nM, X2 2.5, R2 1.00
[2] = target: IgG affixed to the BLI probe; test: BLI kinetic analysis, 1:1 fit, protein M 15.6-250 nM, IgG on Anti-Mouse IgG Fc Capture biosensor (mouse IgG per paragraph 316), 37 C
[3] = target: AAV2 capsid (AAV2-Luciferase vector) (adeno-associated virus 2) (UniProt P03135); test: cell-based or functional assay
Chain of UniProt P03135 (P03135 whole entry, the tested form may be a part): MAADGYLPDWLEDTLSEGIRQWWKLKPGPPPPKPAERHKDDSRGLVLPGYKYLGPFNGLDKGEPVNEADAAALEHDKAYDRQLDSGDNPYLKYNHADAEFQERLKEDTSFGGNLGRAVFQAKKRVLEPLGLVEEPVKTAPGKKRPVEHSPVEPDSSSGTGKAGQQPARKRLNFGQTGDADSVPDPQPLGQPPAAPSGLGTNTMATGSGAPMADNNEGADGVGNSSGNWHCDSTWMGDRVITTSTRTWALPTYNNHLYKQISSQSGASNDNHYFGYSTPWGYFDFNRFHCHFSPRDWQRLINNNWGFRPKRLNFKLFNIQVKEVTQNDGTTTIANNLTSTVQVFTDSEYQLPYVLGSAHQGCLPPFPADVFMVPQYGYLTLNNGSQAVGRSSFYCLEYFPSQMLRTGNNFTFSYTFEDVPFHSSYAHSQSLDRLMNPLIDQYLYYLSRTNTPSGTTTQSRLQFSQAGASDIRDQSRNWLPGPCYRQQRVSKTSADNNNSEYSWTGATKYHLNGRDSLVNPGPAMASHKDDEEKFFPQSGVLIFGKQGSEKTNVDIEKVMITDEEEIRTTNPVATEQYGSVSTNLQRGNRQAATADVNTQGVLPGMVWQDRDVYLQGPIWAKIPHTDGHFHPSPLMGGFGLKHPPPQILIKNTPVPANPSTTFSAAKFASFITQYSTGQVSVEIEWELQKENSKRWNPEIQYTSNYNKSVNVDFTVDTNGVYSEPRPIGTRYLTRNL

[4] = target: AAV2 capsid (AAV2-Luciferase vector) (adeno-associated virus 2) (UniProt P03135); test: cell-based or functional assay; remark: listed apart in the source
[5] = target: human intravenous immunoglobulin gamma (IVIG), 10% Human IVIG (Gamunex) (human); test: cell-based or functional assay
[6] = target: IgG affixed to the BLI probe; test: BLI kinetic analysis, 1:1 fit, protein M 15.6-250 nM, IgG on Anti-Mouse IgG Fc Capture biosensor (mouse IgG per paragraph 316), 37 C; same row: KD error 0.2 nM, X2 1.9, R2 1.00
[7] = target: IgG affixed to the BLI probe; test: BLI at 37° C, IgG Fc capture biosensor (AHC or AMC, not told which), 1:1 fit, max conc. 250 nM, 5 dilutions
[8] = target: IgG affixed to the BLI probe; test: BLI at 37° C, IgG Fc capture biosensor (AHC or AMC, not told which), 1:1 fit, max conc. 50 nM, 6 points
[9] = target: IgG affixed to the BLI probe; test: BLI kinetic analysis, 1:1 fit, protein M 15.6-250 nM, IgG on Anti-Mouse IgG Fc Capture biosensor (mouse IgG per paragraph 316), 37 C; same row: KD error 0.5 nM, X2 2.4, R2 0.99

Molecule MG WT has a Kd [1] of 11.9 nM, a koff [2] of 0.00033 s⁻¹ and a kon [2] of 28000 M⁻¹ s⁻¹.

“protein M without cleavage of the His tag (from UniProt P47523 37-556)” was tested, and the molar ratio of protein M to AAV2 particle at which enhancement begins to saturate (protein M molecules per AAV2 particle) [3] was 700000 and the molar ratio of protein M to AAV2 particle below which enhancement of the luciferase signal is abolished (protein M molecules per AAV2 particle) [3] was less than 40000.

B1: protein M (SEQ ID NO:2), His-tag removed by thrombin cleavage (protein)
chain: HHHHHHSSGLVPRGSHMTNLVNQSGYALVASGRSGNLGFKLFSTQSPSAEVKLKSLSLNDGSYQSEIDLSGGANFREKFRNFANELSEAITNSPKGLDRPVPKTEISGLIKTGDNFITPSFKAGYYDHVASDGSLLSYYQSTEYFNNRVLMPILQTTNGTLMANNRGYDDVFRQVPSFSGWSNTKATTVSTSNNLTYDKWTYFAAKGSPLYDSYPNHFFEDVKTLAIDAKDISALKTTIDSEKPTYLIIRGLSGNGSQLNELQLPESVKKVSLYGDYTGVNVAKQIFANVVELEFYSTSKANSFGFNPLVLGSKTNVIYDLFASKPFTHIDLTQVTLQNSDNSAIDANKLKQAVGDIYNYRRFERQFQGYFAGGYIDKYLVKNVNTNKDSDDDLVYRSLKELNLHLEEAYREGDNTYYRVNENYYPGASIYENERASRDSEFQNEILKRAEQNGVTFDENIKRITASGKYSVQFQKLENDTDSSLERMTKAVEGLVTVIGEEKFETVDITGVSSDTNEVKSLAKELKTNALGVKLKL
With B1 the AAV2-Luciferase signal, % of PBS control, 33 µg protein M incubated alone with AAV2 (% of PBS control) [4] was 216, the AAV2-Luciferase signal, % of PBS control, 75 µg protein M incubated alone with AAV2 (% of PBS control) [4] was 208 and the AAV2-Luciferase signal, % of no-IVIG control, at 8:1 molar ratio (33 µg protein M, 12.5 µg IVIG) (% of no-IVIG control) [5] was 194. For the same molecule, the AAV2-Luciferase signal, % of no-IVIG control, at 20:1 molar ratio (75 µg protein M, 12.5 µg IVIG) (% of no-IVIG control) [5] was 256, the AAV2-Luciferase signal, % of no-IVIG control, at protein M:IgG molar ratio 0.5:1 (% of no-IVIG control) [5] was 40 and the AAV2-Luciferase signal, % of no-IVIG control, at protein M:IgG molar ratio 1:1 (% of no-IVIG control) [5] was 52. For the same molecule, the AAV2-Luciferase signal, % of no-IVIG control, at protein M:IgG molar ratios greater than 2:1 (12.5 µg IVIG) (% of no-IVIG control) [5] was 108 to 193 and the molar ratio of protein M to IgG sufficient to prevent AAV2 neutralization (protein M molecules per IgG molecule) [5] was 2.

B2: MG 40 (protein, part only)
chain: SLSLNDGSYQSEIDLSGGANFREKFRNFANELSEAITNSPKGLDRPVPKTEISGLIKTGDNFITPSFKAGYYDHVASDGSLLSYYQSTEYFNNRVLMPILQTTNGTLMANNRGYDDVFRQVPSFSGWSNTKATTVSTSNNLTYDKWTYFAAKGSPLYDSYPNHFFEDVKTLAIDAKDISALKTTIDSEKPTYLIIRGLSGNGSQLNELQLPESVKKVSLYGDYTGVNVAKQIFANVVELEFYSTSKANSFGFNPLVLGSKTNVINDLFASKPFTHIDLTQVPLQNSDNSAIDANKLKQAVGDIYNYRRFERQFQGYFAGGYIDKYLVKNVNTNKDSDDDLVYRSLKELNLHLEEAYREGDNTYYRVNENYYPGASIYENERASRDSEFQNEILKRAEQNGVTFDEN
modifications: N-terminal His-tag and thrombin site
Molecule B2 has a Kd [6] of 10.1 nM, a koff [2] of 0.00031 s⁻¹ and a kon [2] of 31000 M⁻¹ s⁻¹.

B3: MG29 (modified M. genitalium protein M MG29, N338) (protein, not shown: small tags and cut ends)
chain: B2 chain with S77E, S123R, S125P, S159Q, F164T, A269V, P282T
B3 gave a Kd [7] of 7.9 nM, a koff [7] of 0.00034 s⁻¹ and a kon [7] of 43000 M⁻¹ s⁻¹.

B4: MG WT* (truncated M. genitalium protein M, amino acids 74-479, with Y338) (protein)
chain: B2 chain with N265Y, P282T
For B4, the Kd [8] was 0.8 nM, the koff [8] was 6.73e-05 s⁻¹ and the kon [8] was 83800 M⁻¹ s⁻¹.

B5: MG 31 (protein, part only)
chain: B2 chain with P282T, V300I, V327I, N329I, K334P, S336V, L340I, T362I
modifications: N-terminal His-tag and thrombin site
For B5, the Kd [9] was 15.5 nM, the koff [2] was 0.00047 s⁻¹ and the kon [2] was 30000 M⁻¹ s⁻¹.

B6: MG66* (modified M. genitalium protein M MG66 with Y338) (protein)
chain: B2 chain with S77E, S123R, S125P, A132P, S159Q, F164T, N201D, N265Y, A269V
B6 showed a Kd [8] of 0.69 nM, a koff [8] of 5.55e-05 s⁻¹ and a kon [8] of 80100 M⁻¹ s⁻¹.
